The target of this data set is T7 DNA polymerase gp5;thioredoxin (trx) (bacteriophage T7;Escherichia coli, UniProt P00581;P0AA25 1-704;2-109, |). Nature of the data set: SEC-SAXS-MALS.

Data on one molecule can be found in publication PMC7654431.

Sequence of T7 DNA polymerase gp5;thioredoxin (trx) (P00581 whole entry, chain 1 of 2): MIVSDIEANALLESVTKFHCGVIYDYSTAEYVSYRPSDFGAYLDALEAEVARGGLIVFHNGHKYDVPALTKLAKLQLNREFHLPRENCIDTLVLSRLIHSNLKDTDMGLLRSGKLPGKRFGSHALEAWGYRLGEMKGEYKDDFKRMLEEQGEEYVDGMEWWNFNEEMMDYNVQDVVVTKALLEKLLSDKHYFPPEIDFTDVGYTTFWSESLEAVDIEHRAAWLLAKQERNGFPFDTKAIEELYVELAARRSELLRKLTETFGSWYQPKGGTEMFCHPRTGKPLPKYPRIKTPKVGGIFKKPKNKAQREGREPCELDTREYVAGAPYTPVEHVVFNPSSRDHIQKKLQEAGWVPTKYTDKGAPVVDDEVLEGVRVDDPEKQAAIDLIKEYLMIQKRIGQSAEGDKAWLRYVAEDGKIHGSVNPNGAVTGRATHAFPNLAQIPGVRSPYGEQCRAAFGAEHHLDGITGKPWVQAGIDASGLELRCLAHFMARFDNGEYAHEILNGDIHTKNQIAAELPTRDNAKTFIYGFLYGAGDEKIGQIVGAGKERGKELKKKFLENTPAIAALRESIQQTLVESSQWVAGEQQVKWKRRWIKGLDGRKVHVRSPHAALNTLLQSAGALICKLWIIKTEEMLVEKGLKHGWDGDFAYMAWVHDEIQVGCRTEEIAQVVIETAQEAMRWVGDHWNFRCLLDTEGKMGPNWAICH
Sequence of T7 DNA polymerase gp5;thioredoxin (trx) (P0AA25 2-109, chain 2 of 2): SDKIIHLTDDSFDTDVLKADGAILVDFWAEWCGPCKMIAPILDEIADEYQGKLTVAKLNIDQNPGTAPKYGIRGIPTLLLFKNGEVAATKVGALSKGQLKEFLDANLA

B1: SAXS primer/template (dsDNA)
DNA 1: TGGCAGGCAGGTGGTCTTGCCGGTC
DNA 2: GATCCCTCGACCGGCAAGACCACCTGCCTGCCA
modifications: 3'-terminal ddC on primer
Take B1: the binding result is listed as “binds”.
